Measured values as given in publication PMC5062252, “High-resolution crystal structure of the therapeutic antibody pembrolizumab bound to the human PD-1” (Scientific Reports, 2016).

Molecular target: T1, extracellular domain of human PD-1 (PD-1ECD), residues 32-160, C93S (human, C93S (stands in the printed letters))
T1 construct: additional N-terminal residues retained after restriction site cloning; additional C-terminal residues retained after cloning and TEV cleavage; also called programmed cell death-1; CD279; not shown: His6, C-terminal, cleaved
T1 chain: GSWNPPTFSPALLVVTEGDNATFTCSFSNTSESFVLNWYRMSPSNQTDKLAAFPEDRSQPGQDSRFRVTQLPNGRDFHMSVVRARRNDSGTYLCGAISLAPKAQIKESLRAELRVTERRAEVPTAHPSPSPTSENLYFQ
Experiment: SEC; analytical gel filtration of the PemFv/PD-1ECD complex; data not shown
Settings: both partners purified

- stoichiometry N: 1
B1: Fv fragment of pembrolizumab (PemFv) (other)
VL: EIVLTQSPATLSLSPGERATLSCRASKGVSTSGYSYLHWYQQKPGQAPRLLIYLASYLESGVPARFSGSGSGTDFTLTISSLEPEDFAVYYCQHSRDLPLTFGGGTKVEIKTSENLYFQ
VH: QVQLVQSGVEVKKPGASVKVSCKASGYTFTNYYMYWVRQAPGQGLEWMGGINPSNGGTNFNEKFKNRVTLTTDSSTTTAYMELKSLQFDDTAVYYCARRDYRFDMGFDYWGQGTTVTVSS
notes: pembrolizumab light chain variable region (PemVL); additional C-terminal residues retained after TEV cleavage; pembrolizumab heavy chain variable region (PemVH); Fv fragment: VL and VH as two separate chains, not linked; also called pembrolizumab Fv; Keytruda; not shown: His6, C-terminal, cleaved; copies: 1 + 1
